Measurements reported in article doi:10.1101/2025.05.15.25327633.

Biological target: Platelet-factor 4 (Human CXCL4) (human)
Assay: cross-linking + AUC

percent of PF4 present as tetramers: 81.2%
stoichiometry N: 4
Substance: Platelet-factor 4 (Human CXCL4) (natural protein)
